These results are taken from doi:10.1101/2020.09.24.311712, “Surface condensation of a pioneer transcription factor on DNA”.

One data set addresses MBP-Klf4-GFP (Homo sapiens, UniProt O43474 1-513). Briefly: EMSA; poly-d(IC) 37.5 ng; Kd value not in material; EMSA: 25 mM Tris pH 7.4, 125 mM KCl, 6% glycerol, 1 mM DTT, 0.1 mg/ml BSA, 7.5 nM Cy5-dsDNA, 37.5 ng poly-d(IC), 20 min at 4 °C. The settings on record: protein: recombinant, tags: N-terminal MBP (3C-cleavable), label: Cy5 at 3' end of strand 1 (so in the source), blunt. Background: Mobility shift assays separate free from complexed probe on a gel.

A further data set addresses Klf4-GFP (Homo sapiens, UniProt O43474 1-513). Briefly: EMSA; poly-d(IC) 37.5 ng; Kd plotted in ED Fig. 2c but value not in material; EMSA: 25 mM Tris pH 7.4, 125 mM KCl, 6% glycerol, 1 mM DTT, 0.1 mg/ml BSA, 7.5 nM Cy5-dsDNA, 37.5 ng poly-d(IC), 20 min at 4 °C. The settings on record: protein: recombinant; tags: C-terminal GFP; MBP removed with 3C protease; label: Cy5 at 3' end of strand 1 (so in the source); blunt.

Klf4-GFP, sequence (O43474 whole entry): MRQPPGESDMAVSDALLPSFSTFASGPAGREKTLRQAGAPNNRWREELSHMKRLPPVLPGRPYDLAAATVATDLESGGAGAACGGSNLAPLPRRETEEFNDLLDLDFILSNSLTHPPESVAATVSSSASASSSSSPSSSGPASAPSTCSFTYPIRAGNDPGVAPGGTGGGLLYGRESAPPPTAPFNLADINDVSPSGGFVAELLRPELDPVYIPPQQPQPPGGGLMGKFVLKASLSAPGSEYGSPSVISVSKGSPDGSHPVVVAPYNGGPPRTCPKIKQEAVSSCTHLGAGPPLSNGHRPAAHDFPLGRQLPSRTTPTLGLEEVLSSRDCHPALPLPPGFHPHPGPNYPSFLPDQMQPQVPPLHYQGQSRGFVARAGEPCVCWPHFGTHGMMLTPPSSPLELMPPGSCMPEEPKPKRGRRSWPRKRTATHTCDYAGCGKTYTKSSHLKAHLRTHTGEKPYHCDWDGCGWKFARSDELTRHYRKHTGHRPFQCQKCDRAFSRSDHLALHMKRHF
MBP-Klf4-GFP, sequence (O43474 whole entry): as above

B1: Klf4 specific dsDNA EMSA (dsDNA)
DNA 1: GGAGGGGTGTGGGGCTG
DNA 2: CAGCCCCACACCCCTCC
In the case of B1, the binding result with MBP-Klf4-GFP and in the data set with Klf4-GFP was “binds” in each case.
